Assay [1] addresses Bovine cardiac actin, filamentous (F-actin) (bovine) (UniProt Q3ZC07).
Assay [2] has the same target. This is another data set of the same source.
Assay [3] shares this target. The source holds these as a separate data set.
For assay [4] the target is unchanged. Put plainly: temperature dependence of light scattering; thermally induced dissociation of Tpm complexes with F-actin stabilized by phalloidin; light scattering at 90°, 350 nm, heating 1 °C/min; Tdiss is the temperature at which a 50% decrease in light scattering occurs; no troponin.
Assay [5] shares this target. The experiment in a line: co-sedimentation; Tpm co-sedimented with F-actin at room temperature; apparent affinity; K50% is the Tpm concentration at which half of the actin becomes saturated; three measurements averaged; as described in refs 27, 28.

Four substances from PMC9820293 can be followed below.

As for “Atrial myosin from the left atrium of the pig (from UniProt F1RRT2 1-197; F1SSF9 1-175) (complex)”, in assay [1], the V0, sliding velocity at low Ca2+ concentration, in vitro motility assay; regulated thin filament of F-actin, D219V Tpm and troponin was found to be 1.42 µm/s; the V0, sliding velocity at low Ca2+ concentration, in vitro motility assay; regulated thin filament of F-actin, WT Tpm and troponin is 0.39 µm/s; the Vmax, sliding velocity at saturated Ca2+ concentration, in vitro motility assay; regulated thin filament of F-actin, D219V Tpm and troponin came out at 8.45 µm/s; the Vmax, sliding velocity at saturated Ca2+ concentration, in vitro motility assay; regulated thin filament of F-actin, WT Tpm and troponin was 7.17 µm/s. In assay [2], this substance showed a C50 of LA myosin for the sliding velocity of thin filaments at saturated Ca2+ concentration, in vitro motility assay; thin filament with D219V Tpm of 47.2 µg/mL and a C50 of LA myosin for the sliding velocity of thin filaments at saturated Ca2+ concentration, in vitro motility assay; thin filament with WT Tpm of 45.3 µg/mL. For the same substance, in assay [3], the C50, myosin concentration at which the sliding velocity is half-maximal, in vitro motility assay; filament: F-actin alone was determined as 18 µg/mL; the C50, myosin concentration at which the sliding velocity is half-maximal, in vitro motility assay; filament: F-actin with D219V Tpm was 43 µg/mL; the C50, myosin concentration at which the sliding velocity is half-maximal, in vitro motility assay; filament: F-actin with WT Tpm was determined as 55.4 µg/mL; the Vmax, sliding velocity at saturated myosin concentration, in vitro motility assay; filament: F-actin alone amounted to 3.26 µm/s. Further, in assay [3], the Vmax, sliding velocity at saturated myosin concentration, in vitro motility assay; filament: F-actin with D219V Tpm is 3.32 µm/s and the Vmax, sliding velocity at saturated myosin concentration, in vitro motility assay; filament: F-actin with WT Tpm amounted to 1.25 µm/s.

The substance “Human Tpm1.1 D219V mutant (natural protein)” had a Tdiss in assay [4] of 45.3 °C. For the same substance, the K50% in assay [5] stood at 2.64 µM.

As for “Human Tpm1.1 WT (cardiac tropomyosin 1.1) (natural protein)”, in assay [4], the Tdiss is 43.3 °C. The K50% in assay [5] was found to be 2.88 µM.

As to “Ventricular myosin from the left ventricle of the pig (from UniProt P79293 1-1935) (complex)”, in assay [1], the V0, sliding velocity at low Ca2+ concentration, in vitro motility assay; regulated thin filament of F-actin, D219V Tpm and troponin was 0.81 µm/s; the V0, sliding velocity at low Ca2+ concentration, in vitro motility assay; regulated thin filament of F-actin, WT Tpm and troponin was 0.24 µm/s; the Vmax, sliding velocity at saturated Ca2+ concentration, in vitro motility assay; regulated thin filament of F-actin, D219V Tpm and troponin came out at 4.22 µm/s; the Vmax, sliding velocity at saturated Ca2+ concentration, in vitro motility assay; regulated thin filament of F-actin, WT Tpm and troponin came out at 3.73 µm/s. In assay [2], this substance came in with a C50 of LV myosin for the sliding velocity of thin filaments at saturated Ca2+ concentration, in vitro motility assay; thin filament with D219V Tpm of 25.9 µg/mL and a C50 of LV myosin for the sliding velocity of thin filaments at saturated Ca2+ concentration, in vitro motility assay; thin filament with WT Tpm of 30.1 µg/mL. For the same substance, in assay [3], the C50, myosin concentration at which the sliding velocity is half-maximal, in vitro motility assay; filament: F-actin alone was 20.1 µg/mL; the C50, myosin concentration at which the sliding velocity is half-maximal, in vitro motility assay; filament: F-actin with D219V Tpm is 26 µg/mL; the C50, myosin concentration at which the sliding velocity is half-maximal, in vitro motility assay; filament: F-actin with WT Tpm is 54.9 µg/mL; the Vmax, sliding velocity at saturated myosin concentration, in vitro motility assay; filament: F-actin alone came to 2.88 µm/s. In assay [3], the Vmax, sliding velocity at saturated myosin concentration, in vitro motility assay; filament: F-actin with D219V Tpm was 2.93 µm/s and the Vmax, sliding velocity at saturated myosin concentration, in vitro motility assay; filament: F-actin with WT Tpm was found to be 1.5 µm/s.
